Key:
[1] = molecular target: CD40 (UniProt P25942); assay: cell-based or functional assay
[2] = molecular target: T1, CD27 (UniProt P26842 20-260, limits assumed); assay: cell-based or functional assay
T1 sequence (looked up): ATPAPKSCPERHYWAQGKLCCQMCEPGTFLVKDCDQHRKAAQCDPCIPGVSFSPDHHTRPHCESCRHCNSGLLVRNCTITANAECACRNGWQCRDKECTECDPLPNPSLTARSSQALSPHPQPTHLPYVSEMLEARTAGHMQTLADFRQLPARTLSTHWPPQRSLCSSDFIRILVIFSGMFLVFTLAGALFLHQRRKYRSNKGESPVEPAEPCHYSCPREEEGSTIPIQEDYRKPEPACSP

[3] = molecular target: T2, human CEA (human, UniProt P06731 35-685, limits assumed); assay: ELISA
T2 sequence (looked up): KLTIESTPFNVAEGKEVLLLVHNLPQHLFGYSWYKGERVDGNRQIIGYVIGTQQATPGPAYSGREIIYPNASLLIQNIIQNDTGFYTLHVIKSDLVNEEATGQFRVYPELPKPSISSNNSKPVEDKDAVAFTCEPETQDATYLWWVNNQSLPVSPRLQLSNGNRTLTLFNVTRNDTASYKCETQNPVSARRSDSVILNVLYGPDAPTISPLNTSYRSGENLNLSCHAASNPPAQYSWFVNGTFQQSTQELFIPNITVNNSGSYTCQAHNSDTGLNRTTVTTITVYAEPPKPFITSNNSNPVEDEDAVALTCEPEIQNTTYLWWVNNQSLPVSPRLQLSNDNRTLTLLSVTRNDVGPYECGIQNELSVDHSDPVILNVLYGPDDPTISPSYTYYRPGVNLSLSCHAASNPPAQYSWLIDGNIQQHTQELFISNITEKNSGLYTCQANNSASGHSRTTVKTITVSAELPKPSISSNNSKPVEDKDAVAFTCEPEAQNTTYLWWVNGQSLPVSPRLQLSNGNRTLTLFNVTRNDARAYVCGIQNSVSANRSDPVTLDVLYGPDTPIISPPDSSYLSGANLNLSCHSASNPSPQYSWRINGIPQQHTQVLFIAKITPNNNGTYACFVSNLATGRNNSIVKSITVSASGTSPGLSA

Chain of CD40 (P25942 21-277 limits assumed): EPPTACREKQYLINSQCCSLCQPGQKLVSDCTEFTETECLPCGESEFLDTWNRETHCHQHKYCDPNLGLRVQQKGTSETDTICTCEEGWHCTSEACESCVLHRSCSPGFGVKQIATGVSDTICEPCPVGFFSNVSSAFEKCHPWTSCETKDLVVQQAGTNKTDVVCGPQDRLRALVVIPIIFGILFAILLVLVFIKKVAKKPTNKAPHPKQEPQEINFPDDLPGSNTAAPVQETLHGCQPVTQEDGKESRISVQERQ

Trimeric CD40L (ligand) showed an immature dendritic cell activation assay, activation level (CD86+ / CD83+), 100 ng/ml, 24 h [1] of 46.1%.

B1: aPDL1-scCD27L-SAB (bispecific antibody, human IgG1, kappa)
chain: QSLGWDVAELQLNHTGPQQDPRLYWQGGPALGRSFLHGPELDKGQLRIHRDGIYMVHIQVTLAICSSTTASRHHPTTLAVGICSPASRSISLLRLSFHQGCTIASQRLTPLARGDTLCTNLTGTLLPSRNTDETFFGVQWVRPGSGSGNGSESLGWDVAELQLNHTGPQQDPRLYWQGGPALGRSFLHGPELDKGQLRIHRDGIYMVHIQVTLAICSSTTASRHHPTTLAVGICSPASRSISLLRLSFHQGCTIASQRLTPLARGDTLCTNLTGTLLPSRNTDETFFGVQWVRPGSGSGNGSESLGWDVAELQLNHTGPQQDPRLYWQGGPALGRSFLHGPELDKGQLRIHRDGIYMVHIQVTLAICSSTTASRHHPTTLAVGICSPASRSISLLRLSFHQGCTIASQRLTPLARGDTLCTNLTGTLLPSRNTDETFFGVQWVRPGSGSDKTHTCPPCPAPELLGGPSVFLFPPKPKDTLMISRTPEVTCVVVDVSHEDPEVKFNWYVDGVEVHNAKTKPREEQYSSTYRVVSVLTVLHQDWLNGKEYKCKVSNKALPAPIEKTISKAKGQPREPQVYTLPPCRDELTKNQVSLWCLVKGFYPSDIAVEWESNGQPENNYKTTPPVLDSDGSFFLYSKLTVDKSRWQQGNVFSCSVMHEALHNHYTQKSLSLSPGK
heavy: EVQLLESGGGLVQPGGSLRLSCAASGFTFSSYIMMWVRQAPGKGLEWVSSIYPSGGITFYADTVKGRFTISRDNSKNTLYLQMNSLRAEDTAVYYCARIKLGTVTTVDYWGQGTLVTVSSASTKGPSVFPLAPSSKSTSGGTAALGCLVKDYFPEPVTVSWNSGALTSGVHTFPAVLQSSGLYSLSSVVTVPSSSLGTQTYICNVNHKPSNTKVDKKVEPKSCDKTHTCPPCPAPELLGGPSVFLFPPKPKDTLMISRTPEVTCVVVDVSHEDPEVKFNWYVDGVEVHNAKTKPREEQYSSTYRVVSVLTVLHQDWLNGKEYKCKVSNKALPAPIEKTISKAKGQPREPQVCTLPPSRDELTKNQVSLSCAVKGFYPSDIAVEWESNGQPENNYKTTPPVLDSDGSFFLVSKLTVDKSRWQQGNVFSCSVMHEALHNRFTQKSLSLSPGK
light: QSALTQPASVSGSPGQSITISCTGTSSDVGGYNYVSWYQQHPGKAPKLMIYDVSNRPSGVSNRFSGSKSGNTASLTISGLQAEDEADYYCSSYTSSSTRVFGTGTKVEIKRTVAAPSVFIFPPSDEQLKSGTASVVCLLNNFYPREAKVQWKVDNALQSGNSQESVTEQDSKDSTYSLSSTLTLSKADYEKHKVYACEVTHQGLSSPVTKSFNRGEC
In the case of B1, the “CD27 Luciferase assay with MDA-MB231 cells, activity against that of scCD27L-Fc” value [2] is reported as ~3 fold.

B2: aCEA-scCD40L (bispecific antibody)
heavy: EVQLLESGGGLVQPGGSLRLSCATSGFTFTDYYMNWVRQAPGKGLEWLGFIGNKANGYTTEYSASVKGRFTISRDKSKSTLYLQMNTLQAEDSAIYYCTRDRGLRFYFDYWGQGTLVTVSSASTKGPSVFPFAPSSKSTSGGTAALGCLVKDYFPEPVTVSWNSGALTSGVHTFPAVLQSSGLYSLSSVVTVPSSSLGTQTYICNVNHKPSNTKVDKKVEPKSCDKTHGSGSSSSSSQIAAHVISEASSKTTSVLQWAEKGYYTMSNNLVTLENGKQLTVKRQGLYYIYAQVTFCSNREASSQAPFIASLSLKSPGRFERILLRAANTHSSAKPCGQQSIHLGGVFELQPGASVFVNVTDPSQVSHGTGFTSFGLLKLGSGSGNGSQIAAHVISEASSKTTSVLQWAEKGYYTMSNNLVTLENGKQLTVKRQGLYYIYAQVTFCSNREASSQAPFIASLSLKSPGRFERILLRAANTHSSAKPCGQQSIHLGGVFELQPGASVFVNVTDPSQVSHGTGFTSFGLLKLGSGSGNGSQIAAHVISEASSKTTSVLQWAEKGYYTMSNNLVTLENGKQLTVKRQGLYYIYAQVTFCSNREASSQAPFIASLSLKSPGRFERILLRAANTHSSAKPCGQQSIHLGGVFELQPGASVFVNVTDPSQVSHGTGFTSFGLLKL
light: QTVLTQSPSSLSVSVGDRVTITCRASSSVTYIHWYQQKPGLAPKSLIYATSNLASGVPSRFSGSGSGTDYTFTISSLQPEDIATYYCQHWSSKPPTFGQGTKVEVKRTVAAPSVFIFPPSDEQLKSGTASVVCLLNNFYPREAKVQWKVDNALQSGNSQESVTEQDSKDSTYSLSSTLTLSKADYEKHKVYACEVTHQGLSSPVTKSFNRGEC
B2: binds [3].
